T1: rDorsal-RHD (Litopenaeus vannamei, UniProt D2E9Y3 74-253)
T1 sequence: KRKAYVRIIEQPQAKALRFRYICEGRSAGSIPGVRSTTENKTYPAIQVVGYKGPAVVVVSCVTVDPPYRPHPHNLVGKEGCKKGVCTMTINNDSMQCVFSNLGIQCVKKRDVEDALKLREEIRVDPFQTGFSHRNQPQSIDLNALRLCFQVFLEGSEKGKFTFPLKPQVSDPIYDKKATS


Key:
rTrx = rTrx (UniProt P0AA25 1-109); assay: EMSA
rDorsal-RHD [1] = biological target: T1, rDorsal-RHD; assay: EMSA
rDorsal-RHD [2] = biological target: T1, rDorsal-RHD; assay: competition

Chain of rTrx (P0AA25 whole entry): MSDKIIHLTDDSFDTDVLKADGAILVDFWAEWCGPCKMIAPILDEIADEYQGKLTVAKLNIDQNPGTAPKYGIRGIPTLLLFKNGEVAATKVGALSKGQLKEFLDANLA

Binder | binding result (rTrx) | binding result (rDorsal-RHD [1]) | binding result (rDorsal-RHD [2])
probe 1 (BigPEN kB1) (dsDNA) DNA 1: TCTGTGTGTGTGTCCTTTAGTGTTTTTCGCCGGAGAAAACATTATCAGAC DNA 2: GTCTGATAATGTTTTCTCCGGCGAAAAACACTAAAGGACACACACACAGA | no binding | binds | 
Mut-bio-probe 1 (dsDNA) DNA 1: TCTGTGTGTGTGTCCTTTACGGAGAAAACATTATCAGA DNA 2: TCTGATAATGTTTTCTCCGTAAAGGACACACACACAGA |  | no binding | 
unlabeled probe 1 (dsDNA) DNA 1: TCTGTGTGTGTGTCCTTTAGTGTTTTTCGCCGGAGAAAACATTATCAGAC DNA 2: GTCTGATAATGTTTTCTCCGGCGAAAAACACTAAAGGACACACACACAGA |  |  | binds

— doi:10.1101/467571
